Data set [1] has as its system GATA 15.5 ZFP (NLS-ZFP-VP16-FLAG) (synthetic construct (SP1 backbone)). Particulars: ChIP anti-FLAG, 293 cells, GAPDH-normalized; 1.9 in Table 7; control ZFP.
Data set [2] concerns VEGF 3a/1 ZFP (NLS-ZFP-VP16-FLAG) (synthetic construct (SP1 backbone)). The conditions noted are these: ChIP anti-FLAG, 293 cells, GAPDH-normalized; 170.4 in Table 7.
In data set [3] the test system is GATA 15.5 ZFP (NLS-ZFP-VP16-FLAG) (synthetic construct (SP1 backbone)). As to the kind of experiment: cell_activity. The conditions noted are these: 293 cells.
Data set [4] relates to VEGF 3a/1 ZFP (NLS-ZFP-VP16-FLAG) (synthetic construct (SP1 backbone)). The data set can be described thus: cell_activity. The conditions noted are these: 293 cells.
For data set [5] the test system is unchanged. The conditions noted are these: ChIP anti-FLAG, 293 cells, GAPDH-normalized.
In data set [6] the test system is GATA 15.5 ZFP (NLS-ZFP-VP16-FLAG) (synthetic construct (SP1 backbone)). Particulars: ChIP anti-FLAG, 293 cells, GAPDH-normalized; designed for a different site.

Where two headings read alike, the source gives them in different places.

Consider three substances from patent US20020064802.

Turning to GGGGAGGATCGCGGAGGCTT (double strand), the figures for the binding signal (fold enrichment vs NVF) in data set [1] and in data set [2] were 0.88 and 74.1, respectively. For the same substance, the activity (fold luciferase vs NVF) in data set [3] (integrated reporter, 1 in Table 8) is 0.8; in data set [4] (integrated reporter, 10 in Table 8), 18.
On to “GGGGAGGATCGCGGAGGCTT (double strand) [endogenous VEGF-A gene target at +1 accessible region]”, for which the binding signal (fold enrichment vs NVF) in data set [5] amounted to 12.1. The substance also returned an activity (fold VEGF mRNA vs NVF) in data set [4] (VEGF protein 1.2, mRNA 1.0 and protein 1.5 in Table 9) of 1.6.
As for “endogenous VEGF-A gene (GATA 15.5 bound site not mapped)”, the binding signal (fold enrichment vs NVF) in data set [6] stood at 4.1. This substance also displayed an activity (fold VEGF mRNA vs NVF) in data set [3] (VEGF protein 1.2, mRNA 2.0 and protein 2.0 in Table 9) of 2.
